Experiment [1] has as its target native human Matriptase on cells (human) (UniProt Q9Y5Y6). Kind of experiment: FACS on 22Rv1 cells, antibody at 1 µg/ml.
In experiment [2] the target is Rhesus Macaque MTSP-1 on 4MBr5 cells (rhesus macaque) (UniProt H9ZCT3). In words: FACS on 4MBr5 monkey lung epithelial cells, antibody at 1 µg/ml.
Experiment [3] deals with T1, Matriptase (soluble enzyme, form not stated) (human, UniProt Q9Y5Y6 615-855, limits assumed).
T1 construct: also called Matriptase-1; MT-SP1
T1 sequence: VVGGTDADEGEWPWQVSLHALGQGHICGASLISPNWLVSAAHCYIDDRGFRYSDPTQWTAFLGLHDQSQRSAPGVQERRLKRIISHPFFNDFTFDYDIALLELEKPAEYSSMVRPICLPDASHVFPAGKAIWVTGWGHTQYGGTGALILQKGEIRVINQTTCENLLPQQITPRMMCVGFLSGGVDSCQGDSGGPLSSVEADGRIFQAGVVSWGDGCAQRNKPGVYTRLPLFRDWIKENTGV
In words: competition ELISA: 125 ng/ml biotinylated MTSP1 pre-incubated 1 hour with titrated HAI-1, then transferred to a sc95/96 coated plate, bound MTSP detected with SA-pod; competitor: plate-coated sc95/96.

With IgG1 irrelevant control antibody, the geomean (geomean fluorescence) in experiment [1] and in experiment [2] was 5 each time.

B1: HAI-1 (soluble, as titrated in the competition assay) (other, UniProt O43278 36-465, looked up)
chain: GPPPAPPGLPAGADCLNSFTAGVPGFVLDTNASVSNGATFLESPTVRRGWDCVRACCTTQNCNLALVELQPDRGEDAIAACFLINCLYEQNFVCKFAPREGFINYLTREVYRSYRQLRTQGFGGSGIPKAWAGIDLKVQPQEPLVLKDVENTDWRLLRGDTDVRVERKDPNQVELWGLKEGTYLFQLTVTSSDHPEDTANVTVTVLSTKQTEDYCLASNKVGRCRGSFPRWYYDPTEQICKSFVYGGCLGNKNNYLREEECILACRGVQGGPLRGSSGAQATFPQGPSMERRHPVCSGTCQPTQFRCSNGCCIDSFLECDDTPNCPDASDEAACEKYTSGFDELQRIHFPSDKGHCVDLPDTGLCKESIPRWYYNPFSEHCARFTYGGCYGNKNNFEEEQQCLESCRGISKKDVFGLRREIPIPSTGSVE
Turning to B1, in experiment [3], the “IC50 (read off the curve)” value is approximately 40 nM.
